From patent publication US20220010021A1 (Sanofi, published 2022)
Where a chain is given by its changes, count along the chain named. Numbers in names are those of the source.

T1: human beta-Klotho (KLB) (human, UniProt Q86Z14 53-997)
T1 construct: Bought soluble protein; also called human KLB; ß-Klotho
T1 sequence (looked up): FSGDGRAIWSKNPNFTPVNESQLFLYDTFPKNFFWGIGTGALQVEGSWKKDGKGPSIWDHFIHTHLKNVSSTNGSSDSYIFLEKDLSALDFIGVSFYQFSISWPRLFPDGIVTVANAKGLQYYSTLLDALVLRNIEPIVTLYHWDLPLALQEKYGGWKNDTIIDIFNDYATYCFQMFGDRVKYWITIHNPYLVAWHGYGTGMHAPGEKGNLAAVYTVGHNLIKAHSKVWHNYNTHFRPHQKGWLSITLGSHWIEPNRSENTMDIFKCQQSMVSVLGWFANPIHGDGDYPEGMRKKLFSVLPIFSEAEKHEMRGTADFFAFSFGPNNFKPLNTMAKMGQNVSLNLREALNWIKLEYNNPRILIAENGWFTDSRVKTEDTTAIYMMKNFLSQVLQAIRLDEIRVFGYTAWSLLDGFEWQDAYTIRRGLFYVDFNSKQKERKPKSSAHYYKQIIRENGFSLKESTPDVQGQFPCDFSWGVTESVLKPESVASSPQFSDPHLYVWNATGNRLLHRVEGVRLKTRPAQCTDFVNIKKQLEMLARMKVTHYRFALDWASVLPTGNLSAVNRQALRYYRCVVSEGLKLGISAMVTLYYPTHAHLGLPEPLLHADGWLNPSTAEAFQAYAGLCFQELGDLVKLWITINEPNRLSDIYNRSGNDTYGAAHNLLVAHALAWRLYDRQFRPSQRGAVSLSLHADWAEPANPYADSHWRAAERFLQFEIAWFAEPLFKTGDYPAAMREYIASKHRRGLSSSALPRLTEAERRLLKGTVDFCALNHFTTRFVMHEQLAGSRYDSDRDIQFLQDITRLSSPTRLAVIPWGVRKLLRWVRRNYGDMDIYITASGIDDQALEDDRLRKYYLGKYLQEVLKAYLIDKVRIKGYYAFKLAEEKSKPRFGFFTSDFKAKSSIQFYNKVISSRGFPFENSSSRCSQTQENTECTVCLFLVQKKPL

T2: human beta-Klotho (KLB) (human, UniProt Q86Z14 53-997)
T2 construct: Bought protein; also called human KLB; β-Klotho
T2 sequence (looked up): T1 sequence (looked up)

B1: 16H7 variant with light chain substitution D95S (antibody, human IgG4 S228P, lambda, V domains shown)
VH: not shown
VL: SYVLTQPPSVSVAPGQTARITCGGNNIGSESVHWYQQKPGQAPVLVVYDDSDRPSGIPERFSGSNSGNTATLTISRVEAGDEADYYCQVWDGNSSHVVFGGGTKLTVLG
B2: 16H7 light chain variant G28A (antibody, human IgG4 S228P, lambda, V domains shown)
VH: not shown
VL: B1 VL with G28A, S95D
B3: 16H7 light chain variant E30A (antibody, V domains shown)
VH: not shown
VL: B1 VL with E30A, S95D
notes: copies: 2 + 2
B4: 16H7 light chain variant V97M (antibody, IgG4, V domains shown)
VH: not shown
VL: B1 VL with S95D, V97M
notes: IgG4 backbone
B5: 16H7 light chain variant E30I (antibody, human IgG4 S228P, lambda, V domains shown)
VH: not shown
VL: B1 VL with E30I, S95D
B6: 16H7 light chain variant E30F (antibody, V domains shown)
VH: not shown
VL: B1 VL with E30F, S95D
notes: copies: 2 + 2
B7: 16H7 light chain variant V98Q (antibody, IgG4, V domains shown)
VH: not shown
VL: B1 VL with S95D, V98Q
notes: IgG4 backbone
B8: 16H7 light chain variant V97I (antibody, IgG4, V domains shown)
VH: not shown
VL: B1 VL with S95D, V97I
notes: IgG4 backbone
B9: 16H7 light chain variant V32S (antibody, IgG4, V domains shown)
VH: not shown
VL: B1 VL with V32S, S95D
notes: IgG4 backbone
B10: 16H7 light chain variant V32T (antibody, IgG4, V domains shown)
VH: not shown
VL: B1 VL with V32T, S95D
notes: IgG4 backbone
B11: 16H7 light chain variant V97C (antibody, IgG4, V domains shown)
VH: not shown
VL: B1 VL with S95D, V97C
notes: IgG4 backbone
B12: 16H7 light chain variant V98M (antibody, IgG4, V domains shown)
VH: not shown
VL: B1 VL with S95D, V98M
notes: IgG4 backbone
B13: 16H7 light chain variant V98F (antibody, IgG4, V domains shown)
VH: not shown
VL: B1 VL with S95D, V98F
notes: IgG4 backbone
B14: 16H7 light chain variant V32Y (antibody, IgG4, V domains shown)
VH: not shown
VL: B1 VL with V32Y, S95D
notes: IgG4 backbone
B15: 16H7 light chain variant V97N (antibody, IgG4, V domains shown)
VH: not shown
VL: B1 VL with S95D, V97N
notes: IgG4 backbone
B16: 16H7 light chain variant E30C (antibody, V domains shown)
VH: not shown
VL: B1 VL with E30C, S95D
notes: copies: 2 + 2
B17: 16H7 light chain variant V97L (antibody, IgG4, V domains shown)
VH: not shown
VL: B1 VL with S95D, V97L
notes: IgG4 backbone
B18: 16H7 light chain variant E30D (antibody, human IgG4 S228P, lambda, V domains shown)
VH: not shown
VL: B1 VL with E30D, S95D
B19: 16H7 light chain variant V97T (antibody, IgG4, V domains shown)
VH: not shown
VL: B1 VL with S95D, V97T
notes: IgG4 backbone
B20: 16H7 light chain variant V98I (antibody, IgG4, V domains shown)
VH: not shown
VL: B1 VL with S95D, V98I
notes: IgG4 backbone
B21: 16H7 light chain variant V32W (antibody, IgG4, V domains shown)
VH: not shown
VL: B1 VL with V32W, S95D
notes: IgG4 backbone
B22: 16H7 light chain variant E30G (antibody, human IgG4 S228P, lambda, V domains shown)
VH: not shown
VL: B1 VL with E30G, S95D
B23: 16H7 light chain variant V98R (antibody, IgG4, V domains shown)
VH: not shown
VL: B1 VL with S95D, V98R
notes: IgG4 backbone
B24: 16H7 light chain variant V98N (antibody, IgG4, V domains shown)
VH: not shown
VL: B1 VL with S95D, V98N
notes: IgG4 backbone
B25: 16H7 light chain variant V98S (antibody, IgG4, V domains shown)
VH: not shown
VL: B1 VL with S95D, V98S
notes: IgG4 backbone
B26: 16H7 variant with light chain substitution S94K (antibody, human IgG4 S228P, lambda, V domains shown)
VH: not shown
VL: B1 VL with S94K, S95D
B27: 16H7 light chain variant V98C (antibody, IgG4, V domains shown)
VH: not shown
VL: B1 VL with S95D, V98C
notes: IgG4 backbone
B28: 16H7 light chain variant V98P (antibody, IgG4, V domains shown)
VH: not shown
VL: B1 VL with S95D, V98P
notes: IgG4 backbone
B29: 16H7 light chain variant V97F (antibody, IgG4, V domains shown)
VH: not shown
VL: B1 VL with S95D, V97F
notes: IgG4 backbone
B30: 16H7 light chain variant V32Q (antibody, IgG4, V domains shown)
VH: not shown
VL: B1 VL with V32Q, S95D
notes: IgG4 backbone

Experiments:
[1] = molecular target: cell surface receptor composed of the tyrosine kinase receptor FGFR1c and co-receptor beta-Klotho (KLB) (human, UniProt P11362 22-822; Q86Z14 1-1044); assay: cell-based or functional assay
Chain of cell surface receptor composed of the tyrosine kinase receptor FGFR1c and co-receptor beta-Klotho (KLB) (P11362 22-822, chain 1 of 2): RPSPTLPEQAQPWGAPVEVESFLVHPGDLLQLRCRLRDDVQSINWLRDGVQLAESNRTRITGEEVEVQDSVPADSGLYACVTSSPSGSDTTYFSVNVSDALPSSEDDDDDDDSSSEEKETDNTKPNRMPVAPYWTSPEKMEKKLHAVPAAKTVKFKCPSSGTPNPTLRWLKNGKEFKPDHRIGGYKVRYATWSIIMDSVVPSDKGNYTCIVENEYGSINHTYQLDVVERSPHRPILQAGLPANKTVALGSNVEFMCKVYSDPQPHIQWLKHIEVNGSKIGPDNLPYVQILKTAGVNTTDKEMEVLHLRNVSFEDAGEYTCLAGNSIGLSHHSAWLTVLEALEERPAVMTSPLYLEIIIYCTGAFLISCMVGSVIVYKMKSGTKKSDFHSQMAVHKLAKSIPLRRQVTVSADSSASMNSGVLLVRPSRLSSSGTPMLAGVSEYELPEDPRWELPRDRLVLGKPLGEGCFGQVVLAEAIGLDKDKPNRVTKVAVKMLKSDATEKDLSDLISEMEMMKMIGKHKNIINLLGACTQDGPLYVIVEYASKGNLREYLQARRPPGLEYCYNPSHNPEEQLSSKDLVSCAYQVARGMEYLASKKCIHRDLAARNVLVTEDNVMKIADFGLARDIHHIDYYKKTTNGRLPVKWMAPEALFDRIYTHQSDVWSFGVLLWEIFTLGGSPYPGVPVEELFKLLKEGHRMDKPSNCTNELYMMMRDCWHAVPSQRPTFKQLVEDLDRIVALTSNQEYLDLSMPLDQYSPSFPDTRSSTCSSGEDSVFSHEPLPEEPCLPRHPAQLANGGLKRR
Chain of cell surface receptor composed of the tyrosine kinase receptor FGFR1c and co-receptor beta-Klotho (KLB) (Q86Z14 whole entry, chain 2 of 2): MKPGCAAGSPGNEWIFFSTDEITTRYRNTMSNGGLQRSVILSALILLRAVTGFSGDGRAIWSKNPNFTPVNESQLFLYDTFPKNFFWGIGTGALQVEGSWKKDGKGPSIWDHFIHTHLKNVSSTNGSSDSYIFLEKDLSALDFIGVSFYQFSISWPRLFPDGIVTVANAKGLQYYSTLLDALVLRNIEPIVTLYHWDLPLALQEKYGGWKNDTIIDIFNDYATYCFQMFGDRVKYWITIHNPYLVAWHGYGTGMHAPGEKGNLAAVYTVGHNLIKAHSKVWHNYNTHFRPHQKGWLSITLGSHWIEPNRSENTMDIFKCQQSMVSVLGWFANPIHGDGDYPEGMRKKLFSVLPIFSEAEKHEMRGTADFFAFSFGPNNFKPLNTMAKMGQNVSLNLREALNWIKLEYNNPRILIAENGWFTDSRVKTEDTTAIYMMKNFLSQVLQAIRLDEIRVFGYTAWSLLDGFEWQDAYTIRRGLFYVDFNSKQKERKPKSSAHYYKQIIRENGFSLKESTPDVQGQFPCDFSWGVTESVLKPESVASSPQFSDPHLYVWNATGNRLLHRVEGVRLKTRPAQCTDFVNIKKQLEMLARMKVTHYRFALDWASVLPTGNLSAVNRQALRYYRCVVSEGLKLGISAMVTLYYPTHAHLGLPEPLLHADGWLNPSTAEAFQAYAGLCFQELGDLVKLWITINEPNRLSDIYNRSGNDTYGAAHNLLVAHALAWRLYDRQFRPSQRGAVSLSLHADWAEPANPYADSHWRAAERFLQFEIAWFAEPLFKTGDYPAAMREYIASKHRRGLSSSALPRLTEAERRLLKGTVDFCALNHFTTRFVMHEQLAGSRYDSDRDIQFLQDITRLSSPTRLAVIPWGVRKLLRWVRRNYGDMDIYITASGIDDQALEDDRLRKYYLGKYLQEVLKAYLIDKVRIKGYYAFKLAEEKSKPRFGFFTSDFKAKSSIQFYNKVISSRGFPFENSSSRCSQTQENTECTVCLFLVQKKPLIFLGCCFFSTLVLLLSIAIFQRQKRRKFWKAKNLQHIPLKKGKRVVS

[2] = molecular target: cell surface receptor composed of FGFR1c and co-receptor beta-Klotho (KLB) (human, UniProt P11362 22-822; Q86Z14 1-1044); assay: cell-based or functional assay
Target sequence in this assay (P11362 22-822, chain 1 of 2): as the sequence (P11362 22-822, chain 1 of 2) above
Target sequence in this assay (Q86Z14 whole entry, chain 2 of 2): as the sequence (Q86Z14 whole entry, chain 2 of 2) above

human beta-Klotho (KLB) [3] = molecular target: T1, human beta-Klotho (KLB); assay: BLI off-rate screen, supernatant;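 also: expression supernatants tested at 25 µg/mL, dissociation followed for 1800 s in D-PBS with 0.1% BSA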
[4] = molecular target: cell surface receptor composed of FGFR1c and co-receptor beta-Klotho (KLB) (human, UniProt P11362 22-822; Q86Z14 1-1044); assay: cell-based or functional assay; remark: listed apart in the source
Target sequence in this assay (P11362 22-822, chain 1 of 2): as the sequence (P11362 22-822, chain 1 of 2) above
Target sequence in this assay (Q86Z14 whole entry, chain 2 of 2): as the sequence (Q86Z14 whole entry, chain 2 of 2) above

human beta-Klotho (KLB) [5] = molecular target: T2, human beta-Klotho (KLB); assay: BLI off-rate screening (Octet), crude supernatant;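 also: supernatants tested at 25 µg/mL, dissociation from biosensors recorded in D-PBS with 0.1% BSA over 1800 s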
For Mean E max, Luciferase reporter gene assay in this document: reference of the scale not given here.

Row | Binder | Mean E max, Luciferase gene reporter assay [1] [%] | Mean E max, Luciferase reporter gene assay [2] [%] | Mean EC50, Luciferase reporter gene assay [2] [nM] | koff (human beta-Klotho (KLB) [3]) [s⁻¹] | Mean E max, Luciferase reporter gene assay [4] [%] | Mean EC50, Luciferase reporter gene assay [4] [nM] | koff (human beta-Klotho (KLB) [5]) [s⁻¹] | Mean EC50, Luciferase gene reporter assay [1] [nM]
1 | B1 | 37 |  |  |  |  |  |  | 
2 | B2 |  | 92 | 0.123 | 3.3e-05 |  |  |  | 
3 | B3 |  | 103 | 0.146 | 5.1e-05 |  |  |  | 
4 | B4 |  |  |  |  | 103 | 0.214 | 3.3e-05 | 
5 | B5 |  | 108 | 0.136 | 7.3e-05 |  |  |  | 
6 | B6 |  | 92 | 0.107 | 9.7e-05 |  |  |  | 
7 | B7 |  |  |  |  | 111 | 0.121 | 3.7e-05 | 
8 | B8 |  |  |  |  | 110 | 0.12 | 1.7e-05 | 
9 | B9 |  |  |  |  | 102 | 0.124 | 5.1e-05 | 
10 | B10 |  |  |  |  | 107 | 0.107 | 7e-05 | 
11 | B11 |  |  |  |  | 104 | 0.19 | 0.00023 | 
12 | B12 |  |  |  |  | 108 | 0.114 | 7.2e-05 | 
13 | B13 |  |  |  |  | 102 | 0.161 | 1.6e-05 | 
14 | B14 |  |  |  |  | 106 | 0.103 | 1.9e-05 | 
15 | B15 |  |  |  |  | 95 | 0.206 | 0.00033 | 
16 | B16 |  | 92 | 0.114 | 9.6e-05 |  |  |  | 
17 | B17 |  |  |  |  | 110 | 0.129 | 5.9e-05 | 
18 | B18 |  | 96 | 0.118 | 3.6e-05 |  |  |  | 
19 | B19 |  |  |  |  | 99 | 0.142 | 0.0001 | 
20 | B20 |  |  |  |  | 116 | 0.105 | 3.3e-05 | 
21 | B21 |  |  |  |  | 102 | 0.145 | 0.00023 | 
22 | B22 |  | 94 | 0.138 | 4.8e-05 |  |  |  | 
23 | B23 |  |  |  |  | 99 | 0.099 | 0.00011 | 
24 | B24 |  |  |  |  | 112 | 0.111 | 2.1e-05 | 
25 | B25 |  |  |  |  | 107 | 0.094 | 3.9e-05 | 
26 | B26 | 104 |  |  |  |  |  |  | 0.185
27 | B27 |  |  |  |  | 100 | 0.105 | 6.4e-05 | 
28 | B28 |  |  |  |  | 89 | 0.131 | 7.3e-05 | 
29 | B29 |  |  |  |  | 45 | 3.02 | 2.1e-05 | 
30 | B30 |  |  |  |  | 91 | 0.166 | 0.00025 | 
